The target in the experiment is PPI peptide (…) in complex with pMHC-CD8wt monomer (HLA-A02:01). Description: micropipette adhesion frequency assay; biotinylated pMHC monomers on streptavidin-coated biotinylated RBCs brought into contact with single CTL clones; adhesion frequency against contact time, equilibrium at 4 s; 2D affinity AcKa in μm^4; room temperature (main figures) and 37°C (supplement).

“CD8 co-receptor on human HCV-specific CTL clones (from UniProt P01732 22-235; P10966 22-210)” gave a 2D affinity (AcKa) of 1e-06 μm^4.

(Values after paper PMC5532383.)
